# Measurements published in the supplement of paper PMC9112550, “Optimization of the antimicrobial peptide Bac7 by deep mutational scanning” (BMC Biology, 2022).
# System: Escherichia coli TOP10
# Assay: shrunken log2 fold change of peptide-encoding DNA abundance (4.5 h post-induction vs induction); higher = less antimicrobial activity (less host growth inhibition)
# Settings: time post-induction: 4.5 h; library: site-saturation at positions 5, 18, 19, 20
# 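Note: peptides expressed intracellularly from a pBAD plasmid library in pooled LB shake-flask culture, induced with 0.3% L-arabinose, DNA abundance read by NGS, three biological replicates, DESeq2 with apeglm shrinkage.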
row,Sequence,shrunken log2 fold change
1,RRIRQRPPRLPRPRPRPMKQPRP,-0.0134
2,RRIRVRPPRLPRPRPRPSGNPRP,-0.225
3,RRIRKRPPRLPRPRPRPKVTPRP,0.0261
4,RRIRLRPPRLPRPRPRPKTWPRP,0.108
5,RRIRSRPPRLPRPRPRPYTQPRP,-0.184
6,RRIRHRPPRLPRPRPRPQNGPRP,-0.535
7,RRIRQRPPRLPRPRPRPWRMPRP,-0.421
8,RRIRFRPPRLPRPRPRPARDPRP,0.732
9,RRIRTRPPRLPRPRPRPYYIPRP,-0.845
10,RRIRYRPPRLPRPRPRPTFAPRP,-0.321
11,RRIRKRPPRLPRPRPRPGLYPRP,0.324
12,RRIRNRPPRLPRPRPRPQSGPRP,0.0495
13,RRIRARPPRLPRPRPRPGHSPRP,-0.0933
14,RRIRIRPPRLPRPRPRPINNPRP,-0.751
15,RRIRSRPPRLPRPRPRPYAHPRP,-0.131
16,RRIRSRPPRLPRPRPRPKYYPRP,-0.918
17,RRIRCRPPRLPRPRPRPCMWPRP,-0.124
18,RRIRARPPRLPRPRPRPDIMPRP,0.0619
19,RRIRTRPPRLPRPRPRPHQKPRP,-0.127
20,RRIRCRPPRLPRPRPRPGCDPRP,0.258
21,RRIRCRPPRLPRPRPRPRAQPRP,0.4
22,RRIRKRPPRLPRPRPRPQMYPRP,-0.192
23,RRIRDRPPRLPRPRPRPYMCPRP,-0.0331
24,RRIRNRPPRLPRPRPRPVDSPRP,-0.196
25,RRIRFRPPRLPRPRPRPHCWPRP,-0.0304

row,Sequence,shrunken log2 fold change
1,RRIRVRPPRLPRPRPRPRSIPRP,3.22
2,RRIRVRPPRLPRPRPRPVCEPRP,0.206
3,RRIRDRPPRLPRPRPRPLFFPRP,0.648
4,RRIRPRPPRLPRPRPRPRYSPRP,-0.354
5,RRIRKRPPRLPRPRPRPCFMPRP,-0.0787
6,RRIRNRPPRLPRPRPRPDRTPRP,-0.161
7,RRIRERPPRLPRPRPRPQNKPRP,-0.64
8,RRIRARPPRLPRPRPRPRHDPRP,0.128
9,RRIRCRPPRLPRPRPRPNWHPRP,-0.271
10,RRIRERPPRLPRPRPRPNETPRP,-0.0321
11,RRIRQRPPRLPRPRPRPVKVPRP,-0.00987
12,RRIRTRPPRLPRPRPRPVCMPRP,-0.17
13,RRIRSRPPRLPRPRPRPYCYPRP,-0.0398
14,RRIRVRPPRLPRPRPRPPCHPRP,-0.451
15,RRIRFRPPRLPRPRPRPQHTPRP,-0.164
16,RRIRKRPPRLPRPRPRPLWEPRP,0.163
17,RRIRLRPPRLPRPRPRPWVMPRP,-1.02
18,RRIRCRPPRLPRPRPRPPFDPRP,0.415
19,RRIRLRPPRLPRPRPRPNCLPRP,-0.61
20,RRIRMRPPRLPRPRPRPTAYPRP,0.513
21,RRIRWRPPRLPRPRPRPEYAPRP,0.467
22,RRIRMRPPRLPRPRPRPRIKPRP,0.0377
23,RRIRQRPPRLPRPRPRPREFPRP,0.0416
24,RRIRMRPPRLPRPRPRPWDWPRP,0.794
25,RRIRVRPPRLPRPRPRPTHNPRP,0.0759

row,Sequence,shrunken log2 fold change
1,RRIRNRPPRLPRPRPRPVHIPRP,-0.15
2,RRIRCRPPRLPRPRPRPVYDPRP,-0.683
3,RRIRFRPPRLPRPRPRPDKSPRP,0.053
4,RRIRYRPPRLPRPRPRPENHPRP,-0.552
5,RRIRQRPPRLPRPRPRPTIWPRP,-0.0969
6,RRIRRRPPRLPRPRPRPPHEPRP,0.449
7,RRIRARPPRLPRPRPRPEWYPRP,0.137
8,RRIRGRPPRLPRPRPRPRANPRP,0.816
9,RRIRLRPPRLPRPRPRPTVFPRP,0.156
10,RRIRARPPRLPRPRPRPMEVPRP,-0.0122
11,RRIRRRPPRLPRPRPRPCHSPRP,0.00408
12,RRIRVRPPRLPRPRPRPPYPPRP,0.0226
13,RRIRGRPPRLPRPRPRPFDEPRP,0.294
14,RRIRHRPPRLPRPRPRPHTEPRP,-0.406
15,RRIRYRPPRLPRPRPRPFWSPRP,-0.363
16,RRIRQRPPRLPRPRPRPDSLPRP,-0.0756
17,RRIRLRPPRLPRPRPRPCGLPRP,0.142
18,RRIRVRPPRLPRPRPRPCPDPRP,-0.0269
19,RRIRRRPPRLPRPRPRPLHAPRP,1.06
20,RRIRHRPPRLPRPRPRPNNTPRP,-0.931
21,RRIRPRPPRLPRPRPRPPSMPRP,0.29
22,RRIRMRPPRLPRPRPRPDEAPRP,2.2
23,RRIRFRPPRLPRPRPRPMQNPRP,0.027
24,RRIRQRPPRLPRPRPRPRHEPRP,-0.131
25,RRIRVRPPRLPRPRPRPIALPRP,-0.238
